The values that follow come from patent publication US20190367631A1.

In assay [1] the target is human MSR1 extracellular domain expressed with a N-terminal nonahistidine tag (human) (UniProt P21757). Briefly: competition ELISA, plate-coated His9-hMSR1; 1 µM control antibody, competitor ligand 10 nM Ox-LDL. (ELISA stands for enzyme-linked immunosorbent assay.)
Assay [2] has the same target. The assay can be described thus: competition ELISA, plate-coated His9-hMSR1; 300 nM control antibody, competitor ligand biot-AGE-BSA.
Assay [3] has the same target. Briefly: competition ELISA, plate-coated His9-hMSR1; 100 nM control antibody, competitor ligand Ac-LDL.
For assay [4], the target named is endogenously expressed human MSR1 on PMA-treated THP-1 cells (human) (UniProt P21757). Briefly: ECL cell binding, PMA-treated THP-1 cells, 11 nM.
Assay [5] addresses full length human MSR1 with a C-terminal Myc tag, on HEK293.Myc.hMSR1 cells (human) (UniProt P21757). The assay can be described thus: ECL cell binding, HEK293.Myc.hMSR1 cells, 11 nM.
For assay [6], the target named is endogenously expressed human MSR1 on PMA-treated THP-1 cells (human) (UniProt P21757). The assay can be described thus: cell-based or functional assay.
Assay [7] shares this target. Briefly: confocal imaging, differentiated THP-1 cells, Alexa 488 secondary.

Sequence of human MSR1 extracellular domain expressed with a N-terminal nonahistidine tag (human) (P21757 other isoform, or with tags, fused parts or gaps): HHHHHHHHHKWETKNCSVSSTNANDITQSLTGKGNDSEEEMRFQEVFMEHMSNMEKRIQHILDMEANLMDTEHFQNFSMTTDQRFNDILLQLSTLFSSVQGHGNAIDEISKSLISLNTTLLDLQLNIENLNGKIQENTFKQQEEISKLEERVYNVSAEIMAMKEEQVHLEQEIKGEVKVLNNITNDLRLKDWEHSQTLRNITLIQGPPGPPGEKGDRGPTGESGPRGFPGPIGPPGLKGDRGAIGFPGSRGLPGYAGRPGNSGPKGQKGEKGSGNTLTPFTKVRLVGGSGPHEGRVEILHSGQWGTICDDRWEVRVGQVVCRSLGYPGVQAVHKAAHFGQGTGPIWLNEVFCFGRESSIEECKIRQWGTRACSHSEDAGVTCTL
Sequence of endogenously expressed human MSR1 on PMA-treated THP-1 cells (human) (P21757 whole entry): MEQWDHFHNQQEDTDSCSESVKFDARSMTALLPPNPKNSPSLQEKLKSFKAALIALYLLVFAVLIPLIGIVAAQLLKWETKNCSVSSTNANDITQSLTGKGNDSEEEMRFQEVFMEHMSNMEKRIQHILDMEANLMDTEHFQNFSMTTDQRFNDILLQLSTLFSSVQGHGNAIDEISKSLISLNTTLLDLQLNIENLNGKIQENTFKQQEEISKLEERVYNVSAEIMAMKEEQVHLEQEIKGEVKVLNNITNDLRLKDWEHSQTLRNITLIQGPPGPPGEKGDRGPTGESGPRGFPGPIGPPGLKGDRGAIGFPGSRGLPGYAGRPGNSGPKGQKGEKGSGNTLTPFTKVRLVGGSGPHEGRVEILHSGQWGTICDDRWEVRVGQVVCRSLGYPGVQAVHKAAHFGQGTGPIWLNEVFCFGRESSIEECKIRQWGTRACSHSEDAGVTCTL
Sequence of full length human MSR1 with a C-terminal Myc tag, on HEK293.Myc.hMSR1 cells (human) (P21757 whole entry): as above

For mIgG1 isotype control (antibody), the % Blocking is 16% in assay [1], 7% in assay [2] and -4% in assay [3].

mIgG Isotype Control (antibody): the ratio of binding signal (RLU) to isotype control in assay [4] and in assay [5] was 1 fold throughout.

With hIgG1 Isotype Control (antibody), the ratio of binding signal (RLU) to isotype control in assay [4] and in assay [5] was 1 fold throughout.

Consider hIgG1 isotype control (antibody), for which the values for the % Blocking in assay [1], in assay [2] and in assay [3] were 3%, 4% and -8%, respectively.

As for Isotype control (antibody), the Total Internalized RFU in assay [6] was determined as 1.7e+06 RFU. Moreover, in assay [7], the Total Binding at 4° C. (RFU) amounted to 186000 RFU and the Total Binding at 37° C. (RFU) came to 1.09e+06 RFU.
